Test results published in the supplement of paper PMC9170038.

System: MS2 coat protein
Test: apparent KD of MS2 coat protein; designed switch direction (-1 OFF switch, 1 ON switch): -1; higher = weaker reporter binding
Outline: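 On Illumina chips, designed RNA switches with common flanks were made by stalled E. coli RNA polymerase. Titrations with SNAP-549-labelled MS2 coat protein, doubling from 0.7 or 1.5 nM to 3 µM, were done with no input, with 200 uM small-molecule ligand, or with an oligonucleotide input. Apparent KD is the median per design over clusters, from curve fits of normalised cluster fluorescence.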

[1] = input ligand: microRNA oligo, concentration not stated
[2] = Eterna round: R95, input ligand: microRNA oligo, concentration not stated
[3] = Eterna round: R95, input ligand: FMN 200 uM
[4] = Eterna round: R95, input ligand: none

| Sequence | apparent KD of MS2 coat protein (input ligand: FMN 200 uM) | apparent KD of MS2 coat protein (input ligand: none) | other results |
| --- | --- | --- | --- |
| UAUAUAUAGUAAGGAUAUGUAUAUAUUUUAUCAACAGAAGGUACUGACAUGAGGAUCACCCAUGUUUUAGUGUGGGCAUGUAGA [JMF's solution 71] (Eterna round: R96, puzzle: Exclusion NG 1) |  |  | apparent KD of MS2 coat protein [1]: 54.2 nM |
| UAUAUAUAGUAAGGAUAUGUAUAUAUUUUGUAAACAGAAGGUACUGACAUGAGGAUCACCCAUGUUUUAGUGUGGGCAUGUAGA [JMF's solution 66] (Eterna round: R96, puzzle: Exclusion NG 1) |  |  | apparent KD of MS2 coat protein [1]: 60.9 nM |
| UAUAUGUCAGGAUAUUAGUAGUAAAUAAAUAAAAUUAUUACUGAGAAGGGACAUGAGGAUCACCCAUGUUCCUC [JR_Ex4_Sub001] (Eterna round: R97, puzzle: Exclusion 4) | 162 nM | 22.9 nM |  |
| UAUAUGUUAGGAUAUCUCGUCAUGGAGGAAACUCCAUGACGAGAGAAGGAACAUGAGGAUCACCCAUGUUUAUU [Mod of Fisker 25 - Jieux - Exclusion 4] (Eterna round: R97, puzzle: Exclusion 4) | 27.4 nM | 19 nM |  |
| UAUAUGUUAGGAUAUUAGUAGUAAAUGAAUAAAAUUAUUACUGAGAAGGGACAUGAGGAUCACCCAUGUACCUC [Mat - Exclusion 4 - Eli Mod - D30] (Eterna round: R97, puzzle: Exclusion 4) | 19.3 nM | 15.9 nM |  |
| UAUCGGGACUGAGGAUAUUCGUUCGAGCACGAAGAAGAAGGUAGUGUCAGGGACAUGAGGAUCACCCAUGUGAUCUCAGUCCCA [JL ViennaUCT Erinle mod 7] (Eterna round: R96, puzzle: Exclusion NG 1) | 71.8 nM | 67 nM | apparent KD of MS2 coat protein [1]: 60.4 nM |
| UAUCGGGACUGAGGAUAUUCGUUCGAGCACGAAGAAGAAGGUAGUGUCAGGGACAUGAGGAUCACCCAUGUGAUCUCAGUCUUA [JL ViennaUCT Erinle mod 8] (Eterna round: R96, puzzle: Exclusion NG 1) | 127 nM | 98.9 nM | apparent KD of MS2 coat protein [1]: 86.7 nM |
| UAUGGUAAAGUCAGGAUAUACGUACAGAAUUCUAGGUAGAAGGGACAUGAGGAUCACCCAUGUAUGGUAGUGUU [Ex4 #43] (Eterna round: R97, puzzle: Brourd's mod of Exclusion 4) | 262 nM | 66.9 nM |  |
| UAUGGUUAAGUCAGGAUAUACGUACAGAUAUCUGAGUAGAAGGGACAUGAGGAUCACCCAUGUAUGGUAGUGUU [Ex4 #53] (Eterna round: R97, puzzle: Brourd's mod of Exclusion 4) | 187 nM | 64.8 nM |  |
| UAUGGUUAAGUCAGGAUAUACGUGCAGUUUUCUGGGUAGAAGGGACAUGAGGAUCACCCAUGUAUGGUAGUGUU [Ex4 #49] (Eterna round: R97, puzzle: Brourd's mod of Exclusion 4) | 188 nM | 149 nM |  |
| UAUGGUUAAGUCAGGAUAUGCACGAAGAGGUCUAUGCAGAAGGGACAUGAGGAUCACCCAUGUAAAGUCGUGUU [Ex4 #72] (Eterna round: R97, puzzle: Brourd's mod of Exclusion 4) | 57.3 nM | 36.6 nM |  |
| UAUGGUUAAGUCAGGAUAUGCACGCAGAUUACAAAGCAGAAGGGACAUGAGGAUCACCCAUGUACACUCGUGUU [Ex4 #79] (Eterna round: R97, puzzle: Brourd's mod of Exclusion 4) | 25.9 nM | 36.1 nM |  |
| UAUGUUGUUGUGAGGAUAUACUUAGUUUGACCGUAGUAGAAGGCACAUGAGGAUCACCCAUGUAGAUGUUUGGU [JR_BME4_Sub005] (puzzle: Brourd's mod of Exclusion 4) |  |  | apparent KD of MS2 coat protein [2]: 14.9 nM |
| UAUGUUUUUGUGAGGAUAUACUUUGUUUGGUCGUAGUAGAAGGCACAUGAGGAUCACCCAUGUAGAUUUUUGGU [JR_BME4_Sub010] (puzzle: Brourd's mod of Exclusion 4) |  |  | apparent KD of MS2 coat protein [2]: 22.9 nM |
| UAUUAAACAAGCAGGUCCCACAUGAGGAUCACCCAUGUGCUCGUCUUAUAACGAUCUGUGGGAAAACCUACGGAUCG [Elimod 18 - Jieux - Sensor, turn-off variant 1] (Eterna round: R97, puzzle: Sensor, turn-off variant 1) | 37.7 nM | 45.1 nM |  |
| UAUUAACAAGCAAGAUCCUACAUGAGGAUCACCCAUGUGUUCGUCUUAUAAGGUACUGUGACGAAAGUCACGGUACC [Sensor 3, v1 - 75] (puzzle: Sensor v3, turn-off variant 1) |  |  | apparent KD of MS2 coat protein [3]: 76 nM; apparent KD of MS2 coat protein [2]: 321 nM; apparent KD of MS2 coat protein [4]: 108 nM |
| UAUUAACAAGCAUGAUCCCACAUGAGGAUCACCCAUGUGCUCGUCUUAUAAGGUACUGUGACGAAAGUCACGGUACC [Sensor 3, v1 - 85] (puzzle: Sensor v3, turn-off variant 1) |  |  | apparent KD of MS2 coat protein [3]: 132 nM; apparent KD of MS2 coat protein [2]: 139 nM; apparent KD of MS2 coat protein [4]: 144 nM |
| UAUUAACAAGCUUGAUCCCACAUGAGGAUCACCCAUGUGCUCGUCUUAUAAGGUACUGUGACGAAAGUCACGGUACC [Sensor 3, v1 - 86] (puzzle: Sensor v3, turn-off variant 1) |  |  | apparent KD of MS2 coat protein [3]: 89.9 nM; apparent KD of MS2 coat protein [2]: 206 nM; apparent KD of MS2 coat protein [4]: 91.2 nM |
| UAUUAAUGCAAGGAUAUGCUUUUAAUUUUUUUUGCAGAAGGUGCAACAUGAGGAUCACCCAUGUUUCCGGGUAU [JR_E6_Sub032] (puzzle: Exclusion 6) |  |  | apparent KD of MS2 coat protein [2]: 25.7 nM |
| UAUUAGCAAGAAAGAUCCCACAUGAGGAUCACCCAUGUGCUCGUCUUAUAAGGUACUGUGACGAAAGUCACGGUACC [Sensor 3, v1 - 89] (puzzle: Sensor v3, turn-off variant 1) |  |  | apparent KD of MS2 coat protein [3]: 25.3 nM; apparent KD of MS2 coat protein [2]: 101 nM; apparent KD of MS2 coat protein [4]: 26.4 nM |
| UAUUAGCAAGCAAAUGGGUACAUGAGGAUCACCCAUGUGCUCGUCUUAUAAGGUACUGUGCCGAAAGUCACGGUACC [mod--Eli2] (Eterna round: R97, puzzle: Sensor, turn-off variant 1) | 23 nM | 23.4 nM |  |
| UAUUAGCAAGCAACUGGGUACAUGAGGAUCACCCAUGUGCUCGUCUUAUAAGGUACUGUGACGAAAGUCACGGUACC [mod--Eli] (Eterna round: R97, puzzle: Sensor, turn-off variant 1) | 17.4 nM | 16.6 nM |  |
| UAUUAGCAAGCGAGAUCCCACAUGAGGAUCACCCAUGUAAUAAAGCAUCCAGAAUUACUGGGUGCAGCUCGUCUUAU [Winner reversed engineered 11] (Eterna round: R97, puzzle: Sensor, turn-off variant 1) | 32.7 nM | 31 nM |  |
| UAUUAGCAAGCGAGAUCCCACAUGAGGAUCACCCAUGUGCUCGUCUGCUCCAGAAUUACUGGAGCAGCUCGUCUUAU [Winner reversed engineered 19] (Eterna round: R97, puzzle: Sensor, turn-off variant 1) | 21.7 nM | 22.4 nM |  |
| UAUUAGCAAGCGAGAUCCCACAUGAGGAUCACCCAUGUGCUCGUCUUAUAAGGUACUGUGACGAGAGUCACGGUACC [Mat - Sensor, turn-off var - Eli Mod - D17] (Eterna round: R97, puzzle: Sensor, turn-off variant 1) | 16.4 nM | 13.9 nM |  |
